Experimental findings from US20230159646A1 (IBIO, published 2023) are described below.

Assay [1] addresses T1, CD25 (as used in the Carterra LSA kinetics; species and construct not stated) (Homo sapiens (Human), UniProt P01589 22-240).
T1 sequence: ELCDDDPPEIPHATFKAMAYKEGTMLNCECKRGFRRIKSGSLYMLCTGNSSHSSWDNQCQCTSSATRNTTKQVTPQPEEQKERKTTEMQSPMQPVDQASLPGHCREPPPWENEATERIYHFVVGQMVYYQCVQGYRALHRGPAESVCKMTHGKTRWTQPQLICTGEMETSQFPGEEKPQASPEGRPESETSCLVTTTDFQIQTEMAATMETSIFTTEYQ
As to the kind of experiment: Carterra LSA kinetics; KD SD 1.27 nM.

For assay [2], the target named is T2, CD25 endogenously expressed on SUDHL-1 human lymphoma cell line and on induced human Treg (iTreg) (human, UniProt P01589 22-272).
T2 construct: whole, on cells; also called CD25 on SUDHL-1 and iTreg; CD25 expressing SUDHL-1
T2 sequence (looked up): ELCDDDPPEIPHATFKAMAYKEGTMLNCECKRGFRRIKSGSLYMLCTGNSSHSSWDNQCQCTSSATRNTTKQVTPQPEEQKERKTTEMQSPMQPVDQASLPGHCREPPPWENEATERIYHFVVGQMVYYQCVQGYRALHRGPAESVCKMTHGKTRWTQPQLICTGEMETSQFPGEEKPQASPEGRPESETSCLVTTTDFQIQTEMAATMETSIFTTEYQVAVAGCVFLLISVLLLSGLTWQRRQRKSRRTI
The assay can be described thus: flow cytometry, human iTreg cells; average of n=3, SD 83.94.

The target in assay [3] is T3, mouse CD25 (immobilized, ELISA) (mouse, UniProt P01590 22-236, limits assumed).
T3 construct: also called immobilized mouse CD25
T3 sequence (looked up): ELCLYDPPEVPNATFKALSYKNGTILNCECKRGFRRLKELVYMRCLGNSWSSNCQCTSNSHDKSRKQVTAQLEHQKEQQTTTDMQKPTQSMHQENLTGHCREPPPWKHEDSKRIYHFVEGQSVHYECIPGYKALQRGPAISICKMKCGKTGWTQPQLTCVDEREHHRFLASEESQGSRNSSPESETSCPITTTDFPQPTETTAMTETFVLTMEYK
As to the kind of experiment: ELISA, immobilized mouse CD25 (N/A in the 14th table, row 10, column 6). (An ELISA detects its analyte on a solid surface through an enzyme-linked reagent.)

Assay [4] deals with T1, CD25 (as used in the Carterra LSA …). The assay can be described thus: Carterra LSA kinetics.
In assay [5] the target is T2, CD25 endogenously expressed on SUDHL-1 …. As to the kind of experiment: flow cytometry, SUDHL-1 cells; average of n>=6, SD 38.12.
Assay [6] addresses T4, cynomolgus CD25 (Sino Biologicals, 90265-C08H) (cynomolgus, UniProt H6WS54 22-213).
T4 construct: Bought recombinant protein coated on ELISA plates; also called immobilized cynomolgus CD25; cynos monkey CD25
T4 sequence: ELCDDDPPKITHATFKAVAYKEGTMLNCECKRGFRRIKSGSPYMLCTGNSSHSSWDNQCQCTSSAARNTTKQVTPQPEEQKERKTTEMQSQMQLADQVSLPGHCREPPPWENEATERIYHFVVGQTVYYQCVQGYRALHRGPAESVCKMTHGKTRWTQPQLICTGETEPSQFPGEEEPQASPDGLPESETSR
As to the kind of experiment: ELISA, immobilized cynomolgus CD25; average of n>=3, SD 9.8.

The target in assay [7] is T5, human CD25 (Sino Biologicals, 10165-H08H) (human, UniProt P01589 22-213).
T5 construct: Bought recombinant protein coated on ELISA plates; also called immobilized human CD25; IL2RA
T5 sequence (looked up): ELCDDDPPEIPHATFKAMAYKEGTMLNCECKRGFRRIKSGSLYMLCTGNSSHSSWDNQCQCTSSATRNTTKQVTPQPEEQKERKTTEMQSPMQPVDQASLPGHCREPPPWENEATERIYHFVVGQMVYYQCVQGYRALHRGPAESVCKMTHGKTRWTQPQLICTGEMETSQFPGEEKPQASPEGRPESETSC
As to the kind of experiment: ELISA, immobilized human CD25; average of n>=3, SD 3.2.

The target of assay [8] is T3, mouse CD25 (immobilized, ELISA). As to the kind of experiment: ELISA, immobilized mouse CD25 (N/A in the 14th table, row 9, column 6).
The target of assay [9] is T2, CD25 endogenously expressed on SUDHL-1 …. The assay can be described thus: flow cytometry, SUDHL-1 cells; average of n>=6, SD 39.9. (Flow cytometry measures light scatter and fluorescence of single cells or particles in a stream.)
The target of assay [10] is T4, cynomolgus CD25 (Sino Biologicals, …). As to the kind of experiment: ELISA, immobilized cynomolgus CD25; average of n>=3, SD 12.3.
For assay [11], the target named is T1, CD25 (as used in the Carterra LSA …). The assay can be described thus: Carterra LSA kinetics; KD SD 1.03 nM.
Assay [12] deals with T2, CD25 endogenously expressed on SUDHL-1 …. As to the kind of experiment: flow cytometry, human iTreg cells; average of n=3, SD 40.50.
Assay [13] deals with T5, human CD25 (Sino Biologicals, …). The assay can be described thus: ELISA, immobilized human CD25; average of n>=3, SD 2.5.
In assay [14] the target is T3, mouse CD25 (immobilized, ELISA). The assay can be described thus: ELISA, immobilized mouse CD25 (N/A in the 14th table, row 8, column 6).
Assay [15] has the same target. As to the kind of experiment: ELISA, immobilized mouse CD25 (N/A in the 14th table, row 7, column 6).

B1: IBIO-101-plant-afuc (SD-889825-PC-A; IBIO-101, c-105 plant Afucosylated) (antibody, human IgG1, kappa, V domains shown)
VH: QVQLVQSGAEVKKPGASLKISCKGSGYTFTDYAMHWVRQAPGQGLEWIGVISTYSGDAIYAQKFQGRATMTVDTSTSTAYLELSSLRSEDTAVYYCARGVTFDYWGQGTTVTVSS
VL: DIQMTQSPSSLSASVGDRVTITCRASQDISNYLEWYQQKPGKAPKLLVYNAKTLAEGVPSRFSGSGSGTDFTLTISSLQPEDFGTYYCQHHYDTPYTFGQGTKLEIKR
modifications: afucosylated glycan (made in C105 dXT/FT plants deficient in fucosylation and xylosylation)
notes: Signal peptide of the entries is not part of the mature antibody; Human IgG1 constant region, afucosylated; also called RTX-003; hD11
What is called Kd is the concentration at which binding is half-saturated. As usually defined, the EC50 is the concentration giving half of the maximal effect. Read a low EC50 as an effect from little substance. A word on the koff: it is a measure of how fast the partners let go of each other. Higher therefore signals a short-lived complex. Usually kon stands for a measure of how fast the partners come together. Read a high kon as fast association. In assay [1], B1 registered a Kd of 4.27 nM. For the same molecule, the EC50 in assay [2] was 0.218 µg/mL; in assay [5] it was 0.123 µg/mL; in [6], 0.0424 µg/mL; in assay [7], 0.0174 µg/mL. Besides, the binding result in assay [3] is “no binding (tested: 10 µg/mL)”. In [4], the koff is 0.00207 s⁻¹. In addition, in assay [4], the kon came out at 492000 M⁻¹ s⁻¹.

B2: IBIO-101-plant-WT (SD-889825-PW-A; IBIO-101, wild-type plant) (antibody, human IgG1, kappa, V domains shown)
VH: QVQLVQSGAEVKKPGASLKISCKGSGYTFTDYAMHWVRQAPGQGLEWIGVISTYSGDAIYAQKFQGRATMTVDTSTSTAYLELSSLRSEDTAVYYCARGVTFDYWGQGTTVTVSS
VL: DIQMTQSPSSLSASVGDRVTITCRASQDISNYLEWYQQKPGKAPKLLVYNAKTLAEGVPSRFSGSGSGTDFTLTISSLQPEDFGTYYCQHHYDTPYTFGQGTKLEIKR
notes: Signal peptide of the entries is not part of the mature antibody; Made in wild-type Nicotiana benthamiana; human IgG1 constant region; also called RTX-003; hD11
Consider B2, for which the binding result in assay [8] is recorded as “no binding (tested: 10 µg/mL)”.

B3: IBIO-101-CHO-afuc (SD-889825-CG-A; IBIO-101, CHO cells Afucosylated) (antibody, human IgG1, kappa, V domains shown)
VH: QVQLVQSGAEVKKPGASLKISCKGSGYTFTDYAMHWVRQAPGQGLEWIGVISTYSGDAIYAQKFQGRATMTVDTSTSTAYLELSSLRSEDTAVYYCARGVTFDYWGQGTTVTVSS
VL: DIQMTQSPSSLSASVGDRVTITCRASQDISNYLEWYQQKPGKAPKLLVYNAKTLAEGVPSRFSGSGSGTDFTLTISSLQPEDFGTYYCQHHYDTPYTFGQGTKLEIKR
modifications: afucosylated glycan (as printed: afucosylated)
notes: signal peptide of the entries is not part of the mature antibody; Human IgG1 constant region, afucosylated; also called RTX-003; hD11
For the molecule B3, the EC50 in assay [9] came to 0.126 µg/mL; in assay [10] it was 0.0431 µg/mL; in [12], 0.219 µg/mL; in [13], 0.0156 µg/mL. Besides, the Kd in assay [11] was found to be 3.9 nM. The molecule further registered a koff in assay [4] of 0.00119 s⁻¹. For the same molecule, the kon in [4] stood at 499000 M⁻¹ s⁻¹. The binding result in assay [14] is recorded as “no binding (tested: 10 µg/mL)”.

B4: IBIO-101-CHO-WT (SD-889825-CW-A; IBIO-101, wild-type CHO cells) (antibody, human IgG1, kappa, V domains shown)
VH: QVQLVQSGAEVKKPGASLKISCKGSGYTFTDYAMHWVRQAPGQGLEWIGVISTYSGDAIYAQKFQGRATMTVDTSTSTAYLELSSLRSEDTAVYYCARGVTFDYWGQGTTVTVSS
VL: DIQMTQSPSSLSASVGDRVTITCRASQDISNYLEWYQQKPGKAPKLLVYNAKTLAEGVPSRFSGSGSGTDFTLTISSLQPEDFGTYYCQHHYDTPYTFGQGTKLEIKR
notes: the entries carry the plant extensin signal peptide, which is not part of the mature antibody; Human IgG1 constant region, fucosylated (WT); also called RTX-003; hD11
Take B4: the binding result in [15] is “no binding (tested: 10 µg/mL)”.
